Data from patent US10501552B2, “Multivalent molecules comprising DR5-binding domains” (MacroGenics, Inc., priority 2015, dated 2019).

Legend:
[1] = system: MDA-MB-175VII; test: […]-GLO cell viability assay with vorinostat; type: cell-based; conditions: MDA-MB-175VII (Breast); 1 μg/ml + 1 μM Vorinostat
[2] = system: DU145; test: […]-GLO cell viability assay with vorinostat; type: cell-based, human; conditions: DU145 (Prostate); 1 μg/ml + 10 μM Vorinostat
[3] = system: Hs700T; test: […]-GLO cell viability assay with vorinostat; type: cell-based; conditions: Hs700T (Pancreas); 1 μg/ml + 1 μM Vorinostat
[4] = system: AsPC1; test: […]-GLO cell viability assay with vorinostat; type: cell-based; conditions: AsPC1 (Pancreas); 1 μg/ml + 1 μM Vorinostat
[5] = system: MDA-MB-231; test: MTS cell proliferation assay; type: cell-based; conditions: MDA-MB-231 (Breast); 1 μg/ml, ±10 μg/ml αmFc; two days
Experimental: (§1) Cell lines obtained from ATCC were cultured under standard tissue culture conditions. Each cell line was plated at ˜2×10^4 cells/well (in 96-well plates), and incubated overnight in F12/DMEM media supplemented with 10% FBS. […] Cell viability was determined using Promega CellTiter 96® AQeous Non-Radioactive Cell Proliferation Assay (Cat # G5430) essentially as described in the manufacturer's instructions to assay the amount of soluble formazan produced by cellular reduction of the MTS, which is a measure of the number of viable cells in the culture. Briefly, MTS/PMS regent was added to the wells and the absorbance at 490 nm (referenced at […]) was read in a Molecular Devices ThermoMax microplate reader.
(§2) Similar studies were performed over a range of anti-DR5 mAb concentrations from ˜10^−3 nM to ˜10^2 nM. The data for COLO205 cells is provided in FIG. 13, and are representative of cell lines sensitive to the antibodies of the invention.
(§3) The cytotoxicity of tetravalent DR5-Binding Molecules of the present invention was investigated. […] His-tagged TRAIL (R&D systems) was used as a positive control.
(§4) Similar studies were performed over a range of anti-DR5 mAb concentrations from ˜10^−3 nM to ˜10^2 nM.

[6] = system: Hs746T; test: MTS cell proliferation assay; type: cell-based; conditions: Hs746T (Stomach); 1 μg/ml, ±10 μg/ml αmFc; two days
Experimental: as §1, §2, §3, §4

[7] = system: SKOV3; test: MTS cell proliferation assay; type: cell-based; conditions: SKOV3 (Ovary); 1 μg/ml, ±10 μg/ml αmFc; two days
Experimental: as §1, §2, §3, §4

[8] = system: MDA-MB-175VII; test: MTS cell proliferation assay; type: cell-based; conditions: MDA-MB-175VII (Breast); 1 μg/ml, ±10 μg/ml αmFc; two days
Experimental: as §1, §2, §3, §4

[9] = system: Calu3; test: MTS cell proliferation assay; type: cell-based; conditions: Calu3 (Lung); 1 μg/ml, ±10 μg/ml αmFc; two days
Experimental: as §1, §2, §3, §4

[10] = system: HPAFII; test: MTS cell proliferation assay; type: cell-based; conditions: HPAFII (Pancreas); 1 μg/ml, ±10 μg/ml αmFc; two days
Experimental: as §1, §2, §3, §4

[11] = system: 786O; test: MTS cell proliferation assay; type: cell-based; conditions: 786O (Kidney); 1 μg/ml, ±10 μg/ml αmFc; two days
Experimental: as §1, §2, §3, §4

[12] = system: MDA-MB-361; test: MTS cell proliferation assay; type: cell-based; conditions: MDA-MB-361 (Breast); 1 μg/ml, ±10 μg/ml αmFc; two days
Experimental: as §1, §2, §3, §4

[13] = system: PC3; test: MTS cell proliferation assay; type: cell-based; conditions: PC3 (Prostate); 1 μg/ml, ±10 μg/ml αmFc; two days
Experimental: as §1, §2, §3, §4

[14] = system: 22RV1; test: MTS cell proliferation assay; type: cell-based; conditions: 22RV1 (Prostate); 1 μg/ml, ±10 μg/ml αmFc; two days
Experimental: as §1, §2, §3, §4

[15] = system: ES2; test: MTS cell proliferation assay; type: cell-based; conditions: ES2 (Ovary); 1 μg/ml, ±10 μg/ml αmFc; two days
Experimental: as §1, §2, §3, §4

[16] = system: Hs700T; test: MTS cell proliferation assay; type: cell-based; conditions: Hs700T (Pancreas); 1 μg/ml, ±10 μg/ml αmFc; two days
Experimental: as §1, §2, §3, §4

[17] = system: AsPC1; test: MTS cell proliferation assay; type: cell-based; conditions: AsPC1 (Pancreas); 1 μg/ml, ±10 μg/ml αmFc; two days
Experimental: as §1, §2, §3, §4

[18] = system: A498; test: MTS cell proliferation assay; type: cell-based; conditions: A498 (Kidney); 1 μg/ml, ±10 μg/ml αmFc; two days
Experimental: as §1, §2, §3, §4

[19] = system: BT474; test: MTS cell proliferation assay; type: cell-based; conditions: BT474 (Breast); 1 μg/ml, ±10 μg/ml αmFc; two days
Experimental: as §1, §2, §3, §4

[20] = system: SW948; test: MTS cell proliferation assay; type: cell-based; conditions: SW948 (Colon); 1 μg/ml, ±10 μg/ml αmFc; two days
Experimental: as §1, §2, §3, §4

[21] = system: ES2; test: […]-GLO cell viability assay with vorinostat; type: cell-based; conditions: ES2 (Ovary); 1 μg/ml + 10 μM Vorinostat
[22] = system: COLO205; test: […]-GLO cell viability assay with vorinostat; type: cell-based; conditions: for synergy with vorinostat: 0.1 or 1 μM vorinostat; for Average % Ctrl: one day
Experimental: For the first study COLO205 cells were plated at 2×10^4 cells/well (in 96-well plates), and incubated overnight in F12/DMEM media supplemented with 10% FBS. […] Cell viability was determined using Promega […]-GLO® Luminescent Cell Viability Assay (Cat # G5430) essentially as described in the manufacturer's instructions to assay the amount of ATP present, which is a measure of the number of viable cells in the culture. Briefly, an […]-GLO® Reagent was added to the wells and mixed for two minutes to induce lysis and the luminescence was read in a in PerkinElmer EnVision multilabel plate reader.
Cell viability of cells treated with the test articles is normalized to the corresponding negative control (medium±vorinostat) which is set to 100% and reported in Table 12 as % of control for each test agent alone or % control for each test agent in combination with vorinostat. % of control values less than 100% indicate a reduction in viability and reflect the cytotoxicity of the test article alone or in combination with vorinostat.
The Net Gain (Average % Growth Inhibition)=% Medium Ctrl (10% FBS)−% Medium Ctrl (1/10 μM vorinostat), and represents increased cytotoxicity of the test article in combination with vorinostat over cells treated with vorinostat alone.

[23] = system: BT474; test: […]-GLO cell viability assay with vorinostat; type: cell-based; conditions: BT474 (Breast); 1 μg/ml + 10 μM Vorinostat
[24] = Vorinostat 0 μM, % Medium Ctrl (10% FBS), 10 ng/ml tetravalent molecule or 1 μg/ml DR5 mAb
[25] = Vorinostat 0.1 μM, normalized to medium + vorinostat
[26] = Vorinostat 1 μM, normalized to medium + vorinostat

B1: DR5 mAb 2: murine anti-human DR5 monoclonal antibody; VL SEQ ID NO:13, VH SEQ ID NO:18 (antibody, listed as Mus musculus, V domains shown)
VH: KVQLQQSGAELVKPGASVKLSCKASGYTFTEYILHWVKQKSGQGLEWIGWFYPGNNNIKYNEKFKDKATLTADKSSSTVYMELSRLTSEDSAVYFCARHEQGPGYFDYWGQGTTLTVSS
VL: DIVMTQSHKFMSTSVGDRVSITCKASQDVNTAVAWYQQKPGQSPKLLIYWASTRHTGVPDRFTGSGSGTDYTLTIKSVQAEDLTLYYCQQHYITPWTFGGGTKLEIK
modifications: (1)..(119) Anti-DR5 Antibody mAb 2 Heavy Chain Variable Region; (1)..(107) Anti-DR5 Antibody mAb 2 Light Chain Variable Region
[1]
  Net Gain (Average % Growth Inhibition): 0.95%
[2]
  Net Gain (Average % Growth Inhibition): 4.18%
[3]
  Net Gain (Average % Growth Inhibition): 0.22%
[4]
  Net Gain (Average % Growth Inhibition): 5.11%
[5]
  % Inhibition (Average): 4.47%
[6]
  % Inhibition (Average): 1.25%
[7]
  % Inhibition (Average): 2.02%
[8]
  % Inhibition (Average): 1.09%
[9]
  % Inhibition (Average): 2.06%
[10]
  % Inhibition (Average): 2.68%
[11]
  % Inhibition (Average): 1.79%
[12]
  % Inhibition (Average): 1.98%
[13]
  % Inhibition (Average): 2.19%
[14]
  % Inhibition (Average): 3.89%
[15]
  % Inhibition (Average): 1.88%
[16]
  % Inhibition (Average): 0.99%
[17]
  % Inhibition (Average): 0.13%
[18]
  % Inhibition (Average): 1.92%
[19]
  % Inhibition (Average): 2.84%
[20]
  % Inhibition (Average): 1.76%
[21]
  Net Gain (Average % Growth Inhibition): 4.17%
[22]
  synergy with vorinostat: did not synergize
[22]; [24]
  Average % Ctrl: 96.4%
[22]; Vorinostat 0.1 μM
  Net Gain (Average % Growth Inhibition): 0%
[22]; [25]
  Average % Ctrl: 96.5%
[22]; Vorinostat 1 μM
  Net Gain (Average % Growth Inhibition): 1%
[22]; [26]
  Average % Ctrl: 95.5%
[23]
  Net Gain (Average % Growth Inhibition): 2.23%

B2: DR5 mAb 1: anti-human DR5 monoclonal antibody; VL SEQ ID NO:3, VH SEQ ID NO:8 (antibody, listed as Mus musculus, V domains shown)
VH: EVKFLESGGGLVQPGGSLKLSCVASGFDFSRYWMSWVRQAPGKGLEWIGEINPDSNTINYTPSLKDKFIISRDNAKNTLYLQMTKVRSEDTALYYCTRRAYYGNPAWFAYWGQGTLVTVSS
VL: DIVLTQSPASLAVSLGQRATISCRASKSVSSSGYSYMHWYQQKPGQPPKVLIFLSSNLDSGVPARFSGSGSGTDFTLNIHPVEDGDAATYYCQHSRDLPPTFGGGTKLEIK
modifications: (1)..(121) Anti-DR5 Antibody mAb 1 Heavy Chain Variable Region; (1)..(111) Anti-DR5 Antibody mAb 1 Light Chain Variable Region
[1]
  Net Gain (Average % Growth Inhibition): 0.95%
[2]
  Net Gain (Average % Growth Inhibition): 4.18%
[3]
  Net Gain (Average % Growth Inhibition): 0.22%
[4]
  Net Gain (Average % Growth Inhibition): 5.11%
[5]
  % Inhibition (Average): 1.79%
[6]
  % Inhibition (Average): 2.83%
[7]
  % Inhibition (Average): 3.16%
[8]
  % Inhibition (Average): 1.6%
[9]
  % Inhibition (Average): 2.86%
[10]
  % Inhibition (Average): 2.86%
[11]
  % Inhibition (Average): 0.91%
[12]
  % Inhibition (Average): 1.54%
[13]
  % Inhibition (Average): 2.79%
[14]
  % Inhibition (Average): 3.03%
[15]
  % Inhibition (Average): 3.31%
[16]
  % Inhibition (Average): 1.21%
[17]
  % Inhibition (Average): 1.73%
[18]
  % Inhibition (Average): 0.89%
[19]
  % Inhibition (Average): 2.26%
[20]
  % Inhibition (Average): 3.53%
[21]
  Net Gain (Average % Growth Inhibition): 4.17%
[22]
  synergy with vorinostat: did not synergize
[22]; [24]
  Average % Ctrl: 96.8%
[22]; Vorinostat 0.1 μM
  Net Gain (Average % Growth Inhibition): 0%
[22]; [25]
  Average % Ctrl: 96.4%
[22]; Vorinostat 1 μM
  Net Gain (Average % Growth Inhibition): 3%
[22]; [26]
  Average % Ctrl: 93.3%
[23]
  Net Gain (Average % Growth Inhibition): 2.15%
